B1: EY 2A (antibody, V domains shown)
VH: QVQLVESGAEVTKPGDSLIISCKGSGYAFTQYWIGWVRQKPGKGLEWMAMVYPDSSAVFAGGASGVRYRPPFQGQVTISADTSVNTAYLQWDSLKASDTAMYYCVRQERGSNTWYAGNSWGQGTLVTVSS
VL: DIVMTQSPLSLPVSPGEPASISCRSSQSLLHTDAYNYLDWYLQKPGQSPQLLIYLGSTRASGVPDRFSGSGSGTDFTLKISSVKAEDVGVYYCMQALQTPGTFGQGTKLEIK
B2: EY 3B (antibody, V domains shown)
VH: B1 VH with Q1E, D16E, S129F
VL: B1 VL with D1E, M4L, L109V, K112R
B3: EW 4C (antibody, V domains shown)
VH: EVQLVESGPGLVKPSETLSLTCSVSADSFKKGYYWGWIRQPPGKGLESIVNSFDSGTTRYNPSLWGRATVSDMSKWHFSLKLTSVTAADTAVYYCVRGTYGSGLHWGQGILVTVSS
VL: QTVVTQEPSLTVSPGGTVTLTCGSSVGTVASGHYPYWVQQKPGQAPRTLIYDTDNKQSWTPARFSGSLLGGKAALTLSGAQPEDEADYYCFLSHNDAWVFGGGTKLTVL
B4: EY 6A (antibody, V domains shown)
VH: EVQLVESGGGVVQPGRSLRLSCAASAFTFSSYDMHWVRQAPGKGLEWVAVISYDGSNKYYADSVKGRFTISRDNSKNTLYLQMNSLRAEDTAVYYCAKDGGKLWVYYFDYWGQGTTVTVSS
VL: not shown
B5: EW 9C (antibody, V domains shown)
VH: EVQLVESGGGVVQPGASLRLSCVASGFTFNNFGFHWVRQAPGKGLEWLAVISYEGSKTYYAESLKGRFTISRDTSKNTVYLQMNSLRAEDTAVYYCARATSIFWFGEGRNWFDPWGQGTMVTVSS
VL: EIVLTQSPGTVSLSAGERATLSCRASQNVGTDLAWYVQRPGQAPRLLIYDTSNKATGIPARFSGRGSGTDFTLTIDSLEPEDFAVYYCQQRSNWPLTFGGGTKVEIR
B6: FI 3A (antibody, V domains shown)
VH: EVQLLESGGGLIQPGGSLRLSCAASGFTVSSNYMSWVRQAPGKGLEWVSVIYSGGSTYYADSVKGRFTISRDNSKNTLYLQMNSLRAEDTAVYYCARDHVRPGMNIWGQGTMVTVSS
VL: not shown
notes: also called FI 03A
B7: FD 5D (antibody, V domains shown)
VH: EVQLVESGGGLVQPGGSLRLSCAASGFTFSSYSMNWVRQAPGKGLEWVSYISSSSSTIYYADPVKGRFTISRDNAKNSLYLQMNSLRAEDTAVYYCASPGGITAAGTSVLFGYYGMDVWGQGTMVTVSS
VL: not shown
B8: FD 11A (antibody, V domains shown)
VH: EVQLVESGGGVVQPGRSLRLSCAASGFTFSSYGMHWVRQAPGKGLEWVAVIWYDGSNKYYADSVKGRFTISRDNSKNTLYLQMNSLRAEDTAVYYCAKGPDILTGYYNYYYYGMDVWGQGTMVTVSS
VL: QSVLTQPPSVSGAPGQRVTISCTGSSSNIGAGYDVHWYQQLPGTAPKLLIYGNSNRPSGVPDRFSGSKSGTSASLAITGLQAEDEADYYCQSYDSSLSGFYVVFGGGTKLTVL
B9: FD 10A (antibody, V domains shown)
VH: EVQLVESGGGLVQPGGSLRLSCAASGFTFSSYWMHWVRQAPGKGLVWVSRINSDGSSTSYADSVKGRFTISRDNAKNTLYLQMNSLRAEDTAVYYCANMAFDIWGQGTMVTVSS
VL: not shown
B10: FG 7A (antibody, V domains shown)
VH: EVQLVESGGGVVQPGRSLRLSCAASGFTFSSYAMHWVRQAPGKGLEWVAVISYDGSNKYYADSVKGRFTISRDNSKNTLYLQMNSLRAEDTAVYYCARSHSGSYRASLDYWGQGTTVTVSS
VL: not shown
B11: FM 1A (antibody, V domains shown)
VH: EVQLLESGGGVVQPGRSLRLSCAASGFTFSSYGMHWVRQAPGKGLEWVAVIWYDGSNKYYADSVKGRFTISRDNSKNTLYLQMNSLRAEDTAVYYCAREGAVGATRGFDYWGQGTLVTVSS
VL: SYELTQPPSVSVAPGQTARITCGGNNIGSKSVHWYQQKPGQAPVLVVYDDSDRPSGIPERFSGSNSGNTATLTISRVEAGDEADYYCQVWDSSSDQGVFGGGTKLTVL
B12: FD 5E (antibody, V domains shown)
VH: EVQLVESGGVVVQPGGSLRLSCAASGFTFDDYAMHWVRQAPGKGLEWVSLISWDGGSTYYADSVKGRFTISRDNSKNSLYLQMNSLRAEDTALYYCAKDSVRFRYYYGMDVWGQGTTVTVSS
VL: EIVLTQSPATLSLSPGERATLSCRASQSVSSYLAWYQQKPGQAPRLLIYDASNRATGIPARFSGSGSGTDFTLTISSLEPEDFAVYYCQQRSNWPLTFGPGTKVDIK
B13: EW 9B (antibody, V domains shown)
VH: EVQLVQSGAEVKKPGASVKVSCKASGYTFTSYYMHWVRQAPGQGLEWMGIINPSGGSTSYAQKFQGRVTMTRDTSTSTVYMELSSLRSEDTAVYYCAREDGVVPAANLMISLEDYYYYGMDVWGQGTTVTVSS
VL: B12 VL with P100G
B14: FD 1D (antibody, V domains shown)
VH: B10 VH with S99A, H100G, R105L, A106N, S107W, L108F, Y110P, T116L
VL: B12 VL with L96I, P100Q, K103R, V104L, D105E

Where a chain is given by its changes, count along the chain named.

One assay concerns the target T1, SARS-CoV-2 nucleocapsid protein (SARS-CoV-2, UniProt P0DTC9 1-419).
T1 construct: also called N protein
The experiment in a line: ELISA on recombinant protein. For orientation: ELISA stands for enzyme-linked immunosorbent assay.
As for B1, the binding result is given as “binds”.

For B2, the binding result is “binds”.

Consider B3, for which the binding result was “binds”.

In the next assay the target is T2, spike glycoprotein of wild type SARS-CoV-2 virus (SARS-CoV-2, UniProt P0DTC2 14-1273). The experiment in a line: cell-based or functional assay.
As to B4, the “Ct value of culture supernatant, after 5 days of incubation (virus control 13.0)” value (“Ct value of culture supernatant” for short) was determined as 22.7 Ct.

Turning to B5, the “Ct value of culture supernatant” value is 22.7 Ct and the “fold reduction of virus” value is approximately 832 fold.

In the case of B6, the “fold reduction of virus” value was approximately 10100 fold.

With B7, the “Ct value of culture supernatant” value is 18.8 Ct and the “fold reduction of virus” value is approximately 56 fold.

As for B8, the “Ct value of culture supernatant” value was 23 Ct and the “fold reduction of virus” value was approximately 1024 fold.

Another assay has as its target T2, spike glycoprotein of wild type …. The experiment in a line: cell-based or functional assay. The source holds these as a separate data set.
For B4, the “Neutralization by FMNT EC50” value came to 22.5 nM and the “Neutralization by PRNT EC50” value was 133 nM.

As for B9, the “Neutralization by PRNT EC50” value is 111 nM.

For B5, the “Neutralization by PRNT EC50” value came to 133 nM.

As to B10, the “Neutralization by PRNT EC50” value turned out to be 133 nM.

Take B6: the “Neutralization by FMNT EC50” value worked out at 0.51 nM and the “Neutralization by PRNT EC50” value was 8.67 nM.

As to B7, the “Neutralization by PRNT EC50” value came to 133 nM.

In the case of B11, the “Neutralization by PRNT EC50” value was determined as 133 nM.

On to B8, for which the “Neutralization by FMNT EC50” value is 3.68 nM and the “Neutralization by PRNT EC50” value amounted to 0.05 nM.

The next assay has as its target T3, SARS-CoV-2 nucleocapsid in fixed and permeabilised SARS-CoV-2 infected cells (SARS-CoV-2, UniProt P0DTC9 1-419).
T3 construct: whole, on cells; also called N antigen
The experiment in a line: immunofluorescence assay.
With B1, the binding result is “binds”.

As to B2, the binding result is given as “binds”.

B3: the binding result was “binds”.

In another assay the target is T4, MERS spike extracellular domain (Middle East respiratory syndrome …, UniProt K9N5Q8 18-1296).
T4 construct: extracellular domain
Put plainly: ELISA.
For the molecule B9, the binding result was “binds”.

With B12, the binding result was “no binding”.

Regarding B13, the binding result is recorded as “no binding”.

Turning to B5, the binding result is “binds”.

For the molecule B10, the binding result is given as “no binding”.

As for B14, the binding result is “binds”.

With B7, the binding result is on record as “no binding”.

With B11, the binding result was “no binding”.

In another assay the target is T5, SARS spike S1 subunit (severe acute respiratory syndrome …, UniProt P59594 14-667).
T5 construct: domain: S1 subunit
Put plainly: ELISA.
For B9, the binding result is “binds”.

Regarding B12, the binding result is recorded as “no binding”.

Turning to B13, the binding result was “no binding”.

In the case of B5, the binding result is on record as “no binding”.

As to B10, the binding result was “no binding”.

On to B14, for which the binding result is “binds”.

As to B7, the binding result was “no binding”.

For the molecule B11, the binding result is “no binding”.

A further assay addresses T6, SARS-CoV-2 spike S1 subunit (SARS-CoV-2, UniProt P0DTC2 16-685).
T6 construct: domain: S1 subunit
Put plainly: ELISA.
Regarding B9, the binding result is on record as “no binding”.

As to B5, the binding result was “no binding”.

For the molecule B10, the binding result is recorded as “no binding”.

Regarding B14, the binding result is “no binding”.

For the molecule B11, the binding result is “no binding”.

For a further assay, the target named is T7, SARS-CoV-2 spike extracellular domain (SARS-CoV-2, UniProt P0DTC2 14-1213).
T7 construct: extracellular domain; also called spike protein of SARS-CoV-2
Put plainly: ELISA.
In the case of B12, the binding result is on record as “binds”.

For B13, the binding result is listed as “binds”.

With B14, the binding result is given as “binds”.

The next assay concerns the target T8, SARS-CoV-2 spike S2 subunit (SARS-CoV-2, UniProt P0DTC2 686-1213).
T8 construct: domain: S2 subunit
The experiment in a line: ELISA.
As to B4, the binding result was “no binding”.

Take B12: the binding result is “no binding”.

On to B13, for which the binding result was “no binding”.

For the molecule B14, the binding result is “binds”.

In the case of B6, the binding result is reported as “no binding”.

Regarding B7, the binding result was “no binding”.

On to B8, for which the binding result is reported as “no binding”.

The target of another assay is T9, Human coronavirus OC43 spike extracellular domain (human coronavirus OC43, UniProt P36334 14-1297).
T9 construct: extracellular domain
Put plainly: ELISA.
Take B9: the binding result is recorded as “binds”.

As to B12, the binding result is “no binding”.

For the molecule B13, the binding result is “no binding”.

With B5, the binding result was “binds”.

Turning to B10, the binding result is on record as “no binding”.

On to B14, for which the binding result is recorded as “binds”.

In the case of B7, the binding result was “no binding”.

In the case of B11, the binding result is “no binding”.

The target in a further assay is T10, SARS-CoV-2 spike receptor binding domain (RBD) (SARS-CoV-2, UniProt P0DTC2 319-541).
T10 construct: also called SARS-CoV-2 RBD
Put plainly: ELISA.
Regarding B9, the binding result is reported as “no binding”.

As for B12, the binding result was “no binding”.

With B13, the binding result is recorded as “no binding”.

As to B5, the binding result was “no binding”.

As to B10, the binding result is “no binding”.

Regarding B14, the binding result is reported as “no binding”.

On to B11, for which the binding result is on record as “no binding”.

For the origin of these results see US20230279079A1 (CHANG GUNG MEMORIAL HOSPITAL LINKOU, published 2023).
